Molecular target: T1, CALRins5 (Type 2 mutant calreticulin) on ELF-153 MPL CALRins5 cells (human, UniProt P27797 18-417)
T1 sequence (looked up): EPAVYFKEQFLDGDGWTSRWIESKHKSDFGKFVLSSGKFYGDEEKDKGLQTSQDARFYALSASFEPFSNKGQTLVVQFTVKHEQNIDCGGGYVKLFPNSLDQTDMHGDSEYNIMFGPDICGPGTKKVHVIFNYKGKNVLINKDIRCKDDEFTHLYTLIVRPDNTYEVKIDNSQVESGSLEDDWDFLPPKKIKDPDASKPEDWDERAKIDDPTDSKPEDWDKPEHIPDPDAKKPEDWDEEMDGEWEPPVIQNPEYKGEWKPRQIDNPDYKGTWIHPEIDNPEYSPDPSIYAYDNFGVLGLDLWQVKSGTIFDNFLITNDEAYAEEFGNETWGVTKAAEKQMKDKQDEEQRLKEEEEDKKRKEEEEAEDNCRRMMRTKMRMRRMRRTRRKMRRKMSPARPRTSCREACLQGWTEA
Test: cell-based or functional assay

B1: C3CRB73, a CALRmut x CD3 bispecific antibody (bispecific antibody, human IgG1, kappa, L234A L235A)
heavy: EVQLLESGGGLVQPGGSLRLSCAVSGIDLSNNAISWVRQAPGKGLEYVGVIGNTGDTYYADSAKGRFTISRDSSKTTLYLQMNSLRAEDTAVYFCVRGPPSYSSSVKNIWGQGTLVTVSSASTKGPSVFPLAPSSKSTSGGTAALGCLVKDYFPEPVTVSWNSGALTSGVHTFPAVLQSSGLYSLSSVVTVPSSSLGTQTYICNVNHKPSNTKVDKKVEPKSCDKTHTCPPCPAPEAAGGPSVFLFPPKPKDTLMISRTPEVTCVVVSVSHEDPEVKFNWYVDGVEVHNAKTKPREEQYNSTYRVVSVLTVLHQDWLNGKEYKCKVSNKALPAPIEKTISKAKGQPREPQVYTLPPSREEMTKNQVSLSCAVKGFYPSDIAVEWESNGQPENNYKTTPPVLDSDGSFFLVSKLTVDKSRWQQGNVFSCSVMHEALHNRFTQKSLSLSPGK
light: DIQMTQSPSSVSASVGDRVTITCQSSQSVYNNNWLSWLQQKPGKAPKRLIYDASKLESGVPSRFSGSGSGTDFTLTISSVQPEDAATYYCAGGFTGNVYTFGGGTKVEIKRTVAAPSVFIFPPSDEQLKSGTASVVCLLNNFYPREAKVQWKVDNALQSGNSQESVTEQDSKDSTYSLSSTLTLSKADYEKHKVYACEVTHQGLSSPVTKSFNRGEC
chain: DIQMTQSPSSLSASVGDRVTITCRARQSIGTAIHWYQQKPGCAPKLLIKYASESISGVPSRFSGSGSGTDFTLTISSLQPEDFATYYCQQSGSWPYTFGQGTKLEIKGGGSGGSGGCPPCGGSGGEVQLVESGGGLVKPGGSLRLSCAASGFTFSRYNMNWVRQAPGKGLEWVSSISTSSNYIYYADSVKGRFTFSRDNAKNSLDLQMSGLRAEDTAIYYCTRGWGPFDYWGCGTLVTVSSEPKSSDKTHTCPPCPAPEAAGGPSVFLFPPKPKDTLMISRTPEVTCVVVSVSHEDPEVKFNWYVDGVEVHNAKTKPREEQYNSTYRVVSVLTVLHQDWLNGKEYKCKVSNKALPAPIEKTISKAKGQPREPQVYTLPPSREEMTKNQVSLWCLVKGFYPSDIAVEWESNGQPENNYKTTPPVLDSDGSFFLYSKLTVDKSRWQQGNVFSCSVMHEALHNHYTQKSLSLSPGK
median EC50 of ELF-153 MPL CALRins5 cells cytotoxicity using patient whole blood: 0.64 nM

— patent publication US20250376509A1 (Janssen / Centocor, published 2025)
